From PMC10172142

Legend:
[1] = target: CPR Wolfebacteria Fe-SodFM1, wild type (CPR Wolfebacteria (uncultured bacterial candidate phyla radiation)); assay: SEC; analytical size exclusion chromatography, Superdex 200 10/300 increase, 20 mM Tris pH 7.5, 150 mM NaCl, calibrated with molecular weight standards
[2] = target: CPR Wolfebacteria Fe-SodFM1, wild type (CPR Wolfebacteria (uncultured bacterial candidate phyla radiation)); assay: crystal structure; sitting drop vapour diffusion at 20 °C; 100 mM sodium acetate trihydrate pH 4.5, 25% wt/vol polyethylene glycol 3350; data collected at 100 K

CPR Wolfebacteria Fe-SodFM1, wild type (enzyme)
stoichiometry N [1]: 2 | stoichiometry N [2]: 2
